Holding throughout (assay): FACS
A general note: In flow cytometry, cells or beads pass a laser one at a time.

Test [1] has as its target T1, cynomolgus TIGIT (cynomolgus macaque, UniProt A0A7N9I9V4 89-209).
Test [2] addresses T2, mouse TIGIT (mouse, UniProt P86176 29-148).
T2 chain: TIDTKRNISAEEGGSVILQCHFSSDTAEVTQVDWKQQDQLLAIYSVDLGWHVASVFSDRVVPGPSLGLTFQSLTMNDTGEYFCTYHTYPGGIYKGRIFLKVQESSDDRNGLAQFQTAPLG

In test [3] the target is T3, cynomolgus macaque PVRIG expressed on HEK293 cells (cynomolgus macaque, UniProt A0A2K5WVV8 1-322).
T3 chain: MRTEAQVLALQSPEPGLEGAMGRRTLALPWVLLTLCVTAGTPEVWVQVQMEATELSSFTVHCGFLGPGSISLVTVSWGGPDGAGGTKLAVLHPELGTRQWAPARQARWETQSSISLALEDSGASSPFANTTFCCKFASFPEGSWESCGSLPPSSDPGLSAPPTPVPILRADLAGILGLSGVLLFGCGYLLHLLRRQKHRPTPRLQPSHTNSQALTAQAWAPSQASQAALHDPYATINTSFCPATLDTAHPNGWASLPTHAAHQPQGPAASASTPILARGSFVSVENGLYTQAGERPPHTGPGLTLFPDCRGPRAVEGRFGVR

In test [4] the target is T3, cynomolgus macaque PVRIG expressed on ….
In test [5] the target is T1, cynomolgus TIGIT. The source holds these as a separate data set.
The target of test [6] is T4, TIGIT (human, UniProt Q495A1 22-141).
T4 chain: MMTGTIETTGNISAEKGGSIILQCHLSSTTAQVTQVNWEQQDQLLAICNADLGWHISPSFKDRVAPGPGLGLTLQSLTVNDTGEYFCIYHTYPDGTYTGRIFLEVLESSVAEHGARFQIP

The target of test [7] is T4, TIGIT.

Where two headings read alike, the source gives them in different places.

T1 sequence (A0A7N9I9V4 entry or part of it): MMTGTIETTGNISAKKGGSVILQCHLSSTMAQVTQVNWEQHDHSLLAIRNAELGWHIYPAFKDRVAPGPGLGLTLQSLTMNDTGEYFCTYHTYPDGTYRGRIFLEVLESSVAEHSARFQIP

B1: BM26 (antibody, V domains shown)
VH: EVQLQQSGPELVKPGSSVKMSCKASGYTFSSYVMHWVKQKPGQGLEWIGYIDPYNDGAKYNEKFKGKATLTSDKSSSTAYMELSSLTSEDSAVYYCARGGPYGWYFDVWGAGTTVTVSS
VL: DIQMTQSPASLSASVGETVTITCRASEHIYSYLSWYQQKQGKSPQLLVYNAKTLAEGVPSRFSGSGSGTQFSLKINSLQPEDFGTYYCQHHFGSPLTFGAGTTLELKR
In the case of B1, the Kd (as a rule, the concentration at which binding is half-saturated) in test [1] is 1.69 nM.

B2: CPA.9.083 (antibody, V domains shown)
VH: EVQLVETGGGLIQPGRSLRLSCAASGFTFSSYAMHWVRQAPGKGLEWVAVISYDGTPVYYADSVKGRFTISRDNSKNTLYLQMNSLRAEDTAVYYCARDPLPLHYYGMDVWGQGTTVTVSS
VL: QSALTQPRSASGNPGQRVTISCSGSSSNMGRRPVNWYQQIPGTAPKLLIYSQNQRPSGVPDRFSGSQSGTSASLTISGLQSEDEAEYFCAVWDGDRRSLQLGGGTQLAVLG
For the molecule B2, in test [2], the Kd stood at 0.7 nM.

B3: CPA.9.086 (antibody, V domains shown)
VH: EVQLVETGGGLIQPGRSLRLSCAASGFTFSSYAMHWVRQAPGKGLEWVAVISYAGEVKYYADSVKGRFTISRDNSKNTLYLQMNSLRAEDTAVYYCARDPLPLHYYGMDVWGQGTTVTVSS
VL: QSALTQPRSASGNPGQRVTISCSGSSSNMGRRPVNWYQQIPGTAPKLLIYSQNQRPSGVPDRFSGSQSGTSASLTISGLQSEDEAEYFCAVWDDIGRVLQLGGGTQLAVLG
In turn, B3 displayed an equilibrium dissociation constant (Kd) in test [2] of 1.32 nM.

B4: PVRIG (COM701) (antibody, V domains shown)
VH: QVQLVQSGAEVKKPGASVKVSCKASGYAFTNYLIEWVRQAPGQGLEWIGVINPGSGGIYYAQKFQGRVTMTADTSTSTVYMELSSLRSEDTAVYYCARSETHDTWFAYWGQGTLVTVSS
VL: DIQMTQSPSSLSASVGDRVTITCKASQSVRIAVAWFQQKPGKAPKALIYLASTRHTGVPSRFSGSGSGTDFTLTISSVQPEDFATYYCLQHWNYPYTFGQGTKLEIKR
For B4, binding in test [3] was put at a Kd of 0.248 nM.

B5: CHA.7.518.1 (antibody, V domains shown)
VH: QVQLVQSGAEVKKPGASVKVSCKASGYTFTDYNINWVRQAPGQGLEWMGYIYPYIGGSGYAQKFQGRVTMTRDTSTSTVYMELSSLRSEDTAVYYCAREDKTARNAMDYWGQGTLVTVSS
VL: DIQMTQSPSSLSASVGDRVTITCRVSENIYSNLAWYQQKPGKAPKLLIYEATNLAEGVPSRFSGSGSGTDFTLTISSLQPEDFATYYCQHFWGTPYTFGQGTKLEIKR
Regarding B5, the Kd in test [4] worked out at 0.35 nM.

B6: CPA.9.547.13 (antibody, V domains shown)
VH: EVQLVESGGGLVQPGGSLRLSCAASGFTFSSYIMSWVRQAPGKGLEWVATISGGGTNTYYADSVKGRFTISRDNSKNTLYLQMNSLRAEDTAVYYCAKWLLSYYAMDYWGQGTLVTVSS
VL: DIQMTQSPSSLSASVGDRITITCRASQNINVWLTWYQQKPGKAPKLLIYKASKSHTGVPSRFSGSGSGTDFTLTISSLQPEDFATYYCQQGQSYPYTFGQGTKLEIKR
For B6, the Kd in test [5] worked out at 1.67 nM; in test [6] it was 0.71 nM.

B7: CHA.9.547.7 (antibody, V domains shown)
VH: EVQLVESGGGLVQPGGSLRLSCAASGFTFSSYIMSWVRQAPGKGLEWVSTISGGGTNTYYADSVKGRFTISRDNSKNTLYLQMNSLRAEDTAVYYCAKWLLSYYAMDYWGQGTLVTVSS
VL: DIQMTQSPSSLSASVGDRVTITCRASQNINVWLTWYQQKPGKAPKLLIYKASKSHTGVPSRFSGSGSGTDFTLTISSLQPEDFATYYCQQGQSYPYTFGQGTKLEIKR
Turning to B7, the values for the Kd in test [7] and in test [1] were 1.82 nM and 1.54 nM, respectively.

(Values after patent publication US20250136710A1 (published 2025).)
